Measured values: patent US20240285749A1 (published 2024)

Target: HA ectodomain trimer (UniProt Q289M7 18-528)
Assay: Octet

B1: CR9114 (Fab, V domains shown)
VH: QVQLVQSGAEVKKPGSSVKVSCKSSGGTSNNYAISWVRQAPGQGLDWMGGISPIFGSTAYAQKFQGRVTISADIFSNTAYMELNSLTSEDTAVYFCARHGNYYYYSGMDVWGQGTTVTVSS
VL: SYVLTQPPAVSGTPGQRVTISCSGSDSNIGRRSVNWYQQFPGTAPKLLIYSNDQRPSVVPDRFSGSKSGTSASLAISGLQSEDEAEYYCAAWDDSLKGAVFGGGTQLTVL
Kd: < 1 pM
